Patent publication US20180080944A1

Legend:
[1] = target: Sab:KIM1/2 L-A (MAPK/JNK-binding deficient mutant of Sab, pLOC:Sab:KIM1/2 L-A) (UniProt O60239); assay: cell-based or functional assay
[2] = target: Src homology 3 domain binding protein 5 (SH3BP5 or SAB), ectopically expressed from pLOC:Sab (UniProt O60239); assay: cell-based or functional assay
Sequence of Src homology 3 domain binding protein 5 (SH3BP5 or SAB), ectopically expressed from pLOC:Sab (O60239 whole entry): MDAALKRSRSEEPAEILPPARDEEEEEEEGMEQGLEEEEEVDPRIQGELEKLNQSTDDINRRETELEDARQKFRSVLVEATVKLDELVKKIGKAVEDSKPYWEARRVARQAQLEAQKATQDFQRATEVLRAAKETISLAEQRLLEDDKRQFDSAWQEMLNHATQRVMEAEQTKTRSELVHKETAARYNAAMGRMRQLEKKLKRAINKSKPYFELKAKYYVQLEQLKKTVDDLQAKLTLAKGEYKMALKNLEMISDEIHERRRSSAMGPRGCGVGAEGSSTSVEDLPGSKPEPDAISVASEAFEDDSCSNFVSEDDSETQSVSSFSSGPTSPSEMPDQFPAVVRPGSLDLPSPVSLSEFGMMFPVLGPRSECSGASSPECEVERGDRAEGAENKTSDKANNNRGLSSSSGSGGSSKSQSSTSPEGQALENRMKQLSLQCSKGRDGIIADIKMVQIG

Sequence of Sab:KIM1/2 L-A (MAPK/JNK-binding deficient mutant of Sab, pLOC:Sab:KIM1/2 L-A) (O60239 other isoform, or with tags, fused parts or gaps mutant limits assumed): as the sequence (O60239 whole entry) above, with L347A, L349A, L434A, L436A counted along it

Cisplatin IC50 (nM), HeLa cells with ectopic expression, TO-PRO-3 staining [1]: 3.1 nM | Paclitaxel IC50 (µM), HeLa cells with ectopic expression, TO-PRO-3 staining [1]: 13.8 µM | Cisplatin IC50 (nM), HeLa cells with ectopic expression, TO-PRO-3 staining [2]: 0.42 nM | Paclitaxel IC50 (µM), HeLa cells with ectopic expression, TO-PRO-3 staining [2]: 4.7 µM | fold decrease in the IC50 of paclitaxel in HeLa cells against untreated, mock-transfected or RFP-expressing cells [2]: 5 fold
Substance: c-Jun N-terminal Kinase (JNK) (enzyme)
